Measured values as given in PMC11557686.

Key:
Test in all cases: NanoBiT
Conditions in all cases: six technical replicates in each of three independent biological replicates; parent: est. 1.0; read off a plot
SmBiT-SEC24A = SmBiT-SEC24A (UniProt O95486)
SmBiT-SEC24C = SmBiT-SEC24C (UniProt P53992)
LgBiT-SURF4 = LgBiT-SURF4 (UniProt O15260)

Chain of UniProt P53992 (P53992 whole entry): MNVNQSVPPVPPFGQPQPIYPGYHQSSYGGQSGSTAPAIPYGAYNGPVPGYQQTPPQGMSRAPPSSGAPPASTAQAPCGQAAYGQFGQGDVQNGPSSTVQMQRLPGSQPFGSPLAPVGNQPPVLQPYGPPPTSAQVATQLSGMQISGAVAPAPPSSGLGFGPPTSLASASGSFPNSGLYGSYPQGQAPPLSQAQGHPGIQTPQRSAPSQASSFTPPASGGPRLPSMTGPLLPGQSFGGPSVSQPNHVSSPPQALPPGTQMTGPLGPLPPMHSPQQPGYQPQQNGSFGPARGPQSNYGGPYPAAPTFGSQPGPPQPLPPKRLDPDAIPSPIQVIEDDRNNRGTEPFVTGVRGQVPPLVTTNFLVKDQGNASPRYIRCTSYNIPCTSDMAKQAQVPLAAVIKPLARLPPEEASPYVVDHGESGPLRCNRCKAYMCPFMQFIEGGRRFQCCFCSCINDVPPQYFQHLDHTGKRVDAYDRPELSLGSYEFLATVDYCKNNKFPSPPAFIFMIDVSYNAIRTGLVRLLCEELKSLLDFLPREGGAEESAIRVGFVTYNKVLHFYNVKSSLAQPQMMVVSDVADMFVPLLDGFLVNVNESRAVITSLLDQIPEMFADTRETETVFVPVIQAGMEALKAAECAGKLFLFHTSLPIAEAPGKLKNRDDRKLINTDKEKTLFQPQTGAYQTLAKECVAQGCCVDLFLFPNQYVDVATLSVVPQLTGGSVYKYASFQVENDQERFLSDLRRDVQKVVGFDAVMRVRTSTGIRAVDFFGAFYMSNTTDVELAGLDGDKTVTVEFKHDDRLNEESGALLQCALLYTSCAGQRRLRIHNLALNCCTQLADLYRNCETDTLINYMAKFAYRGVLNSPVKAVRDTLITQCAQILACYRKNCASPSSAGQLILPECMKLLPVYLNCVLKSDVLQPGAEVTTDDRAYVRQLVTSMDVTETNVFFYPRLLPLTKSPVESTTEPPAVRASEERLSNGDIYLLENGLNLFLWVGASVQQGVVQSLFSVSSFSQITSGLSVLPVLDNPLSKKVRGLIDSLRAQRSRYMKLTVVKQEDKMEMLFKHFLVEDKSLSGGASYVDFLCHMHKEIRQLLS
Chain of LgBiT-SURF4 (O15260 whole entry, change not shown): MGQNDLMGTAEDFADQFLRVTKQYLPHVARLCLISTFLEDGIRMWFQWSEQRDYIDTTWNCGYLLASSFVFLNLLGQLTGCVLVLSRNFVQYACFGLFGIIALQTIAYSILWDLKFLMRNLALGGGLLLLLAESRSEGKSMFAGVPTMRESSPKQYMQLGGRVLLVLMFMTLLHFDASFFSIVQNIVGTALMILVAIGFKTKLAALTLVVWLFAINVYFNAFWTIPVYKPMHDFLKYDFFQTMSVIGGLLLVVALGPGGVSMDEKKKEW
Chain of SmBiT-SEC24A (O95486 whole entry, change not shown): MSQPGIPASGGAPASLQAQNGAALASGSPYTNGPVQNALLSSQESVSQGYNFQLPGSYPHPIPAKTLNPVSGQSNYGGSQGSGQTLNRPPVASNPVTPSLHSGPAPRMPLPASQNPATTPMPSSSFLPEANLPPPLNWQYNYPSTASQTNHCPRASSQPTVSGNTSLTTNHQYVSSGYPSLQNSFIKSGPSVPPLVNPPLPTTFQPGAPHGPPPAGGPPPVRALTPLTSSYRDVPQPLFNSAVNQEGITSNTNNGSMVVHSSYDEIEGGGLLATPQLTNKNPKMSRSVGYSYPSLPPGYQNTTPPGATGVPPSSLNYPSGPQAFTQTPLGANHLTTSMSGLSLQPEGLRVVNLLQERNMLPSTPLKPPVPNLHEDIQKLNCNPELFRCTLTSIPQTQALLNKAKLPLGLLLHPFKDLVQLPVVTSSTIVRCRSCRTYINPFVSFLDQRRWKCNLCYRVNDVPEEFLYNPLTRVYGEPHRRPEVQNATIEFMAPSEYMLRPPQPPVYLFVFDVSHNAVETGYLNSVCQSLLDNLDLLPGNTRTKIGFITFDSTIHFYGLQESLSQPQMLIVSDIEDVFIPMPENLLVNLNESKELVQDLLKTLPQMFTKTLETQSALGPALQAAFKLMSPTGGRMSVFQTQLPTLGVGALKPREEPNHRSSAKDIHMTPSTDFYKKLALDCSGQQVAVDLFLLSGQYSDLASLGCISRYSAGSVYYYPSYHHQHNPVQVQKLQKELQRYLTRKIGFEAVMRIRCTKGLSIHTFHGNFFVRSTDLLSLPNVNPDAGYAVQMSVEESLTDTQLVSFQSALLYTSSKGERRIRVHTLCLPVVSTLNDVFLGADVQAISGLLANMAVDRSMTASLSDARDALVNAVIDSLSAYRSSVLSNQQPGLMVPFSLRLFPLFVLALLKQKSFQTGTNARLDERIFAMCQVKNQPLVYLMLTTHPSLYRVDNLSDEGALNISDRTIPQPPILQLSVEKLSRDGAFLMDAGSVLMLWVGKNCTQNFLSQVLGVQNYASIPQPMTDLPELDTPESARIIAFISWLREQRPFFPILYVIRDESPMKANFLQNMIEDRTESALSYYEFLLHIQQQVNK

Row | ratio to parent (SmBiT-SEC24A) | ratio to parent (SmBiT-SEC24C) | ratio to parent (LgBiT-SURF4) | Substance
1 | 0.9 | 0.69 |  | LgBiT-SURF4 (from UniProt O15260) DE
2 | 0.85 | 0.78 |  | LgBiT-SURF4 (from UniProt O15260) EW
3 | 0.43 | 0.82 |  | LgBiT-SURF4 (from UniProt O15260) Phe loop
4 |  |  | 0.79 | SmBiT-SEC24A (from UniProt O95486) D-site
